Data: patent US20230008090A1

Key:
[1] = biological target: cynomolgus monkey EGFR on CHOK1-cynoPro1 (EGFR+/CD3-) cells (cynomolgus monkey); test: flow cytometry on CHOK1-cynoPro1 cells
[2] = biological target: human EGFR on tumor cells (A431, HT-29, MCF-7) (human) (UniProt P00533); test: flow cytometry on A431 (EGFR+/CD3-) cells
[3] = biological target: human CD3 on Jurkat.2B8 (CD3+/EGFR-) cells (human) (UniProt P07766); test: flow cytometry on Jurkat.2B8 (CD3+/EGFR-) cells
[4] = biological target: cynomolgus monkey CD3 on cynomolgus monkey PBMC / T cells (cynomolgus monkey) (UniProt Q95LI5); test: flow cytometry on cyno T cells (cynomolgus monkey PBMC)
Chain of cynomolgus monkey CD3 on cynomolgus monkey PBMC / T cells (cynomolgus monkey) (Q95LI5 22-198): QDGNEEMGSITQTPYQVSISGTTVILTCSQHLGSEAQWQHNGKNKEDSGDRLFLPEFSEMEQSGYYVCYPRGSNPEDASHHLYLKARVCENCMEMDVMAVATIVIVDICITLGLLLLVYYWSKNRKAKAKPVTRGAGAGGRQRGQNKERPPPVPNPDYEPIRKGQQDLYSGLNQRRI

Chain of human CD3 on Jurkat.2B8 (CD3+/EGFR-) cells (human) (P07766 23-207): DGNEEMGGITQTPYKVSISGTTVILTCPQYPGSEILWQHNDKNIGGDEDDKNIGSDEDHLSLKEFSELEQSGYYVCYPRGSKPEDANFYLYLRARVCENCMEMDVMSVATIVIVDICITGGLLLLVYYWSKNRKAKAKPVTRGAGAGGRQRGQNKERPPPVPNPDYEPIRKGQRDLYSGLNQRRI

Q: How did the Top MFI [1] turn out when IgG4 isotype control (antibody) was run?
A: The Top MFI was 38 MFI.

Q: And the Top MFI [2]?
A: The Top MFI was 137 MFI.

Q: What about the Top MFI [3] of the same substance?
A: Its Top MFI is 235 MFI.

Q: What about the Top MFI [4] of the same substance?
A: Its Top MFI is 210 MFI.
